What was measured:
[1] = target: T1, TtMDH (malate dehydrogenase from Thermus thermophilus) (Thermus thermophilus, UniProt P10584); assay: X-ray crystal structure, […] Å; format: binding; conditions: apo crystal soaked with 2 mM NAD for about 30 min
T1 construct: gene mdh
T1 sequence (P10584 1-327): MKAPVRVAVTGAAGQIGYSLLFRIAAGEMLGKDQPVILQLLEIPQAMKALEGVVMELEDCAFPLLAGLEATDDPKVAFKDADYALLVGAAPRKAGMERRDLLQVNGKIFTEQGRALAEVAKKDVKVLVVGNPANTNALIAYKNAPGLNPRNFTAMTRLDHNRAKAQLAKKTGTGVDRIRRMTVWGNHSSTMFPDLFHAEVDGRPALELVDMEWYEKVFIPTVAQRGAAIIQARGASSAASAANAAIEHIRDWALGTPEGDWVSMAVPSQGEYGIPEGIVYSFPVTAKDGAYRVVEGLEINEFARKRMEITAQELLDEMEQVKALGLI

[2] = target: T1, TtMDH (malate dehydrogenase from Thermus thermophilus); assay: isothermal titration calorimetry; format: binding
From the text: isothermal titration calorimetry on TtMDH (malate dehydrogenase from Thermus thermophilus)

[3] = target: the molecule itself; assay: SEC; analytical gel filtration on Superdex 200 HR; 0.1 ml TtMDH at 8.8 mg/ml; elution compared with high-molecular-weight standards; estimated mass 61 kDa against 37 kDa for the subunit
[4] = substrate: O=C(O)CC(=O)C(=O)O; assay: purified protein; format: biochemical, Thermus thermophilus; conditions: 0.15 mM NADH, 100 mM glycine-NaOH pH 10.0, 37 °C

Which “X-ray crystal structure, 2.36 Å” value [1] does the source give for `NC(=O)c1ccc[n+]([C@@H]2O[C@H](COP(=O)(O)OP(=O)(O)OC[C@H]3O[C@@H](n4cnc5c(N)ncnc54)[C@H](O)[C@@H]3O)[C@@H](O)[C@H]2O)c1` [NAD] here?
Its value is “co-substrate binding site of TtMDH that could be modeled as NAD”.

`NC(=O)C1=CN([C@@H]2O[C@H](COP(=O)(O)OP(=O)(O)OC[C@H]3O[C@@H](n4cnc5c(N)ncnc54)[C@H](O)[C@@H]3O)[C@@H](O)[C@H]2O)C=CC1` [NADH] was tested. Which Kd [2] did it give?
Its Kd is 1160 nM.

B1: Malate dehydrogenase from Thermus thermophilus (enzyme, UniProt P61977 1-327, looked up)
chain: T1 sequence (P10584 1-327)
notes: Malate dehydrogenase (EC 1.1.1.37) of Thermus thermophilus; calculated mass of the recombinant protein 36874.48 Da; also called TtMDH; MDH; source: E. coli BL21(DE3), purified (heat incubation at 70°C, Ni2+-NTA, Superdex 200 HR gel filtration)
B1 was tested. Which “stoichiometry N” value [3] did it give?
Its value is 2.

And the Km [4]?
Its Km is 168.1 µM.

What about the kcat [4] of the same molecule?
Its kcat is 281.6 s⁻¹.

Reference: PMC3873296, “Crystal Structures and Molecular Dynamics Simulations of Thermophilic Malate Dehydrogenase Reveal Critical Loop Motion for Co-Substrate Binding” (PLoS ONE, 2013)
